Data set [1] addresses chimeric receptor containing the extracellular domain of VEGFR-2, on Ba/F3 cells. As to the kind of experiment: cell-based or functional assay.
In data set [2] the target is T1, VEGFR-3-Ig (extracellular domain of human VEGFR-3 fused to the Fc portion of human IgG1) (human, UniProt P35916 25-775).
T1 construct: extracellular domain; Expressed in 293T cells, captured on protein A Sepharose; not shown: Fc portion of human IgG1
T1 sequence (looked up): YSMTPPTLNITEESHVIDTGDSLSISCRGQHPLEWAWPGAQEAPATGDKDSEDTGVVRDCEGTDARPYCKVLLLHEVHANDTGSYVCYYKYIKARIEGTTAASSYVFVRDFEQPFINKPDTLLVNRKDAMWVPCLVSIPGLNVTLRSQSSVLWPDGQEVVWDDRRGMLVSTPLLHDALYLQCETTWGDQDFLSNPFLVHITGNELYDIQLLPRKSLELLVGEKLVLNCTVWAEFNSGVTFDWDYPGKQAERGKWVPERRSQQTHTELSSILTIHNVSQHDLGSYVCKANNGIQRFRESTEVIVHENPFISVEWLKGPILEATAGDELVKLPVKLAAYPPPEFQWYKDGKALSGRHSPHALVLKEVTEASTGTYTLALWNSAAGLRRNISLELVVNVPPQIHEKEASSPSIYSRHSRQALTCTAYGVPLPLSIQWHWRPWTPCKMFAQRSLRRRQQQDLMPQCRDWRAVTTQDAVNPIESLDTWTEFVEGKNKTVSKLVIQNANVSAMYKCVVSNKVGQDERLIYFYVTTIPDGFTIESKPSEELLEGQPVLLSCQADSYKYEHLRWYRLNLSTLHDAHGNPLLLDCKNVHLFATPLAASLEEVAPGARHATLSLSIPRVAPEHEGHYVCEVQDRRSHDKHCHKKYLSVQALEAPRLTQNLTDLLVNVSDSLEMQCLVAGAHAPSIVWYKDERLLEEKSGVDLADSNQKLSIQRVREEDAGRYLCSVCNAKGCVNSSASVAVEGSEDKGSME
As to the kind of experiment: precipitation of 35S-labeled ligand from conditioned medium by receptor-Ig on protein A Sepharose, SDS-PAGE. On the procedure:
(§1) To further assess the interactions between VEGF-D and the VEGF receptors, VEGF-DΔNΔC was tested for its capacity to bind to soluble immunoglobulin fusion proteins comprising the extracellular domains of human VEGFR-1, human VEGFR-2 and human VEGFR-3. The corresponding fragment of VEGF-C, VEGF-CΔNΔC, was used for comparison. For binding experiments, 293T human embryonal kidney cells were transfected with plasmids encoding the soluble receptor-immunoglobulin fusion proteins VEGFR-1-Ig, VEGFR-2-Ig or VEGFR-3-Ig using the calcium-phosphate (Ca-phosphate) method. In these fusion proteins, the extracellular domain of the relevant VEGF receptor is fused to the Fc portion of human IgG₁. The cells were incubated for 24 hours after transfection, washed with Dulbecco's Modified Eagle's Medium (DMEM) containing 0.2% bovine serum albumin (BSA) and starved for 24 hours. Media were then collected and clarified by centrifugation, and fusion proteins were precipitated using protein A Sepharose beads. […] Metabolic labeling of 293-EBNA cells was carried out essentially as described (Joukov et al., 1997). The Sepharose beads were then washed twice with binding buffer (0.5% BSA, 0.02% Tween 20, 1 μg/ml heparin in phosphate buffered saline (PBS)) at 4° C. and once with PBS, boiled in Laemmli sample buffer, and proteins were then analyzed by SDS-PAGE.
(§2) In FIG. 3, precipitation of labeled VEGF₁₆₅, VEGF-CΔNΔC and VEGF-DΔNΔC by VEGFR-1-Ig, VEGFR-2-Ig and VEGFR-3-Ig was carried out as described above. The fusion proteins used for the precipitations are shown to the right. “Vector” denotes results of precipitations from medium derived from cells transfected with expression vector lacking sequence encoding the VEGFs. The molecular weight markers are indicated in kDa

Data set [3] concerns the target T2, VEGFR-1-Ig (extracellular domain of human VEGFR-1 fused to the Fc portion of human IgG1) (human, UniProt P17948 27-758).
T2 construct: extracellular domain; Expressed in 293T cells, captured on protein A Sepharose; not shown: Fc portion of human IgG1
The description is as above. How it is done: as §1, §2

Data set [4] addresses T3, VEGFR-2-Ig (extracellular domain of human VEGFR-2 fused to the Fc portion of human IgG1) (human, UniProt P35968 20-764).
T3 construct: extracellular domain; Expressed in 293T cells, captured on protein A Sepharose; not shown: Fc portion of human IgG1
The data set is described as above. On the procedure:
as §1, §2

Data set [5] deals with the molecule itself. As to the kind of experiment: size exclusion chromatography and SDS-PAGE (self-association).

T2 sequence (P17948 27-758): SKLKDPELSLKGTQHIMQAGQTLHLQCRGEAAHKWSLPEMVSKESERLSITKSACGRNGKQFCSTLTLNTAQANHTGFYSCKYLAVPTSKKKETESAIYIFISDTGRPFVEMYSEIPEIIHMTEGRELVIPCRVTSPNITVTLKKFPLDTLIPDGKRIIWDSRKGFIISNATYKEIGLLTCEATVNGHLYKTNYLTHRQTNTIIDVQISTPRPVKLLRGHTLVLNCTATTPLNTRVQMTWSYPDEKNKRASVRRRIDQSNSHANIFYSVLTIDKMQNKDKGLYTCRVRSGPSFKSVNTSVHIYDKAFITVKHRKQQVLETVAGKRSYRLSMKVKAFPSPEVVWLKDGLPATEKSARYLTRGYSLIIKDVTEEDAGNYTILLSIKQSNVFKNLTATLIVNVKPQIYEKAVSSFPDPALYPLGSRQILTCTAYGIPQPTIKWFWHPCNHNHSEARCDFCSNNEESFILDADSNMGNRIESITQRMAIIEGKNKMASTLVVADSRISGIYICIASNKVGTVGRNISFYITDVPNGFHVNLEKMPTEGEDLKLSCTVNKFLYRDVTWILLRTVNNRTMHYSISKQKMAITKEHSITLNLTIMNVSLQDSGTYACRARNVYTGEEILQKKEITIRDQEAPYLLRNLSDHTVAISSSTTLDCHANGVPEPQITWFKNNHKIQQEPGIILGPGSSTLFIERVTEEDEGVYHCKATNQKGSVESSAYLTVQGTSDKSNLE
T3 sequence (P35968 20-764): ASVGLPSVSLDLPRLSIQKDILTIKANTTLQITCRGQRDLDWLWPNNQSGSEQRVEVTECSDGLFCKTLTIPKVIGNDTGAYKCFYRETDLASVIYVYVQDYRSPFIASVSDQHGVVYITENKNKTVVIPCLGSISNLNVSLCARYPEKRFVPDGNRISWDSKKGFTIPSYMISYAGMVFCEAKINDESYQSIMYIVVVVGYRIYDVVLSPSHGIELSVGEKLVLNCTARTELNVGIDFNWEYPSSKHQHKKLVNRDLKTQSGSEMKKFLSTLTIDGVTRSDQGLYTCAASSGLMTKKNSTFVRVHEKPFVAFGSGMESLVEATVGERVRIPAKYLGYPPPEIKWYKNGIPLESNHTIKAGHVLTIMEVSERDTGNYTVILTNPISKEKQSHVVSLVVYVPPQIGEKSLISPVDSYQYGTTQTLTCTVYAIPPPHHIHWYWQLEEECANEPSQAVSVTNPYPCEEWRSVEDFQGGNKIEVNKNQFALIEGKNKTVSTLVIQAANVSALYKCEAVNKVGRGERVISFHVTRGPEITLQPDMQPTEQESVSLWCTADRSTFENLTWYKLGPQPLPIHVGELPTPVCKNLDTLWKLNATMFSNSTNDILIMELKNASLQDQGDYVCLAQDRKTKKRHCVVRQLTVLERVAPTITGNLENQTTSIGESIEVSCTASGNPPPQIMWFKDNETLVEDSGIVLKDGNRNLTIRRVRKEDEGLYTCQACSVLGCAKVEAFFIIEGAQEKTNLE

In data set [1], “VEGF-DΔNΔC non-covalent homodimer (size exclusion peak 2, 49 kDa) (from UniProt O43915 93-201) (ligand)” returned a VEGFR-2 binding activity (Ba/F3 cell bioassay) of size exclusion peak 1 (% of that in peak 2) of 1.

B1: human VEGF165 (ligand, UniProt P15692-4 27-191, looked up)
chain: APMAEGGGQNHHEVVKFMDVYQRSYCHPIETLVDIFQEYPDEIEYIFKPSCVPLMRCGGCCNDEGLECVPTEESNITMQIMRIKPHQGQHIGEMSFLQHNKCECRPKKDRARQENPCGPCSERRKHLFVQDPQTCKCSCKNTDSRCKARQLELNERTCRCDKPRR
notes: 35S-labeled conditioned medium
For B1, the binding result in data set [2] is “no binding”; in data set [3], “binds”.

B2: VEGF-DΔNΔC (human VEGF-D amino acid residues 93 to 201 tagged with the FLAG octapeptide adjacent to the N-terminus) (ligand, not shown: small tags and cut ends)
chain: FYDIETLKVIDEEWQRTQCSPRETCVEVASELGKSTNTFFKPPCVNVFRCGGCCNEESLICMNTSTSYISKQLFEISVPLTSVPELVPVKVANHTGCKCLPTAPRHPYS
notes: purified from COS cells for the enzyme immunoassay; human VEGF-D?N?C
As to B2, the binding result is reported as “binds” in data set [4], “binds” in data set [2] and “no binding” in data set [3].

B3: VEGF-DΔNΔC monomer (size exclusion peak 3, 25 kDa) (ligand)
chain: B2 chain
notes: also called VEGF-D?N?C monomer; monomeric form of VEGF-D?N?C; not shown: FLAG octapeptide tag at the N-terminus
As for B3, the binding result in data set [5] is given as “binds”.
